From paper PMC4109836, “Analysis of the co-operative interaction between the allosterically regulated proteins GK and GKRP using tryptophan fluorescence” (Biochemical Journal, 2014) come the findings set out here.

Where two headings read alike, the source gives them in different places.

The target in assay [1] is T1, GK-T65W/W99R/W167F/W257F (Homo sapiens, UniProt P35557, T65W/W167F/W257F/W99R).
T1 construct: GST (cleaved yes); made in house; host or cells: Escherichia coli
T1 sequence (P35557 1-465 T65W/W99R/W167F/W257F): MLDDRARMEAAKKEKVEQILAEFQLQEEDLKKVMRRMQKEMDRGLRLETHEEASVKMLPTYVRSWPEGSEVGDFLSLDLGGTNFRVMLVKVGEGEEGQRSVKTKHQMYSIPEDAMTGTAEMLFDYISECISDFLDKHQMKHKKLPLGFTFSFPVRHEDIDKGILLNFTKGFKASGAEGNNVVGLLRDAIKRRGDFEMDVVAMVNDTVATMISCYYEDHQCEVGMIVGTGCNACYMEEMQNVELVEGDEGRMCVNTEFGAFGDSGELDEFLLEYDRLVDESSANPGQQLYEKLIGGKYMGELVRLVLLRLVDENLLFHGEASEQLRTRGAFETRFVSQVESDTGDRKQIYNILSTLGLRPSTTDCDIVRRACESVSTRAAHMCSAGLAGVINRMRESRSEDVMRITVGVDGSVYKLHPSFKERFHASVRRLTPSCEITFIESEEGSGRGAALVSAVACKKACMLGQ
As to the kind of experiment: GKA and glucose binding by GK-T65W/W99R/W167F/W257F measured by TF. Particulars: 25°C.

In assay [2] the target is T2, GKRP-P446L (Homo sapiens, UniProt Q14397, P446L).
T2 construct: FLAG; made in house; host or cells: Escherichia coli
T2 sequence (Q14397 1-625 P446L): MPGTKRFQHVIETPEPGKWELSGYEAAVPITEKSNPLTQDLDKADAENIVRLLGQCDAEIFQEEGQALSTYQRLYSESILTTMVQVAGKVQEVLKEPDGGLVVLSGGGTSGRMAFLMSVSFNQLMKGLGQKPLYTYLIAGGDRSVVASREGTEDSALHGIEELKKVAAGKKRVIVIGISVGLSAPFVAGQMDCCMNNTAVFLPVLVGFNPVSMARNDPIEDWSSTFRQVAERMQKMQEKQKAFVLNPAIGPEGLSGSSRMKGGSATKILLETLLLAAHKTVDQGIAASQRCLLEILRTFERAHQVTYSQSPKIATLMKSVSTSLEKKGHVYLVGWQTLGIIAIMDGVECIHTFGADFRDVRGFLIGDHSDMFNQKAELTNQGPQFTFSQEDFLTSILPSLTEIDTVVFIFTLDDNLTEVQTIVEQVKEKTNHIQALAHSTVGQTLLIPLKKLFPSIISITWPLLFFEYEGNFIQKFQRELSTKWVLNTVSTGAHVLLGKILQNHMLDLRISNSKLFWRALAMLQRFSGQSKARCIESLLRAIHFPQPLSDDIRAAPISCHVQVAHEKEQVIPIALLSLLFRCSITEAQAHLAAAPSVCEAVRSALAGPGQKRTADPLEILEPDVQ
As to the kind of experiment: Ligand binding to free GKRP-P446L measured by TF of GKRP.

In assay [3] the target is T3, GKRP-P446L (Homo sapiens, UniProt P35557+Q14397, P446L/W167F/W257F/W99R).
T3 construct: FLAG; GST (cleaved yes); made in house; host or cells: Escherichia coli
T3 sequence (Q14397 1-625 P446L): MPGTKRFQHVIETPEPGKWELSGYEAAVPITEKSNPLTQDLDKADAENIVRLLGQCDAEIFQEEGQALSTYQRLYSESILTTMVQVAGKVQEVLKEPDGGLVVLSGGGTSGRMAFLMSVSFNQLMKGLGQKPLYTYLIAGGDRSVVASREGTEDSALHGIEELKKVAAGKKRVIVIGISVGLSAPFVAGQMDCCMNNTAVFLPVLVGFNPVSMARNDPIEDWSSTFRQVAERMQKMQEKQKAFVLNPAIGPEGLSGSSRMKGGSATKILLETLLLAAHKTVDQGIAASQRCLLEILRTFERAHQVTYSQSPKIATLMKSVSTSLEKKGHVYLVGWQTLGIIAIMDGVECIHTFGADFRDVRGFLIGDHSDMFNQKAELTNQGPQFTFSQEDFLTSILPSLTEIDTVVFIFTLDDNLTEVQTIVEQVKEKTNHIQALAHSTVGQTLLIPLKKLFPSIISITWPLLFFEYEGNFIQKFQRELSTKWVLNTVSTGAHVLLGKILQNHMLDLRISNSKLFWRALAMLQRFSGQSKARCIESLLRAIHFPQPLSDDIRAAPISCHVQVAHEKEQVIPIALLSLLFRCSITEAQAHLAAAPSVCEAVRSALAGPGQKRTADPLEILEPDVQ
T3 sequence (P35557 1-465 W99R/W167F/W257F): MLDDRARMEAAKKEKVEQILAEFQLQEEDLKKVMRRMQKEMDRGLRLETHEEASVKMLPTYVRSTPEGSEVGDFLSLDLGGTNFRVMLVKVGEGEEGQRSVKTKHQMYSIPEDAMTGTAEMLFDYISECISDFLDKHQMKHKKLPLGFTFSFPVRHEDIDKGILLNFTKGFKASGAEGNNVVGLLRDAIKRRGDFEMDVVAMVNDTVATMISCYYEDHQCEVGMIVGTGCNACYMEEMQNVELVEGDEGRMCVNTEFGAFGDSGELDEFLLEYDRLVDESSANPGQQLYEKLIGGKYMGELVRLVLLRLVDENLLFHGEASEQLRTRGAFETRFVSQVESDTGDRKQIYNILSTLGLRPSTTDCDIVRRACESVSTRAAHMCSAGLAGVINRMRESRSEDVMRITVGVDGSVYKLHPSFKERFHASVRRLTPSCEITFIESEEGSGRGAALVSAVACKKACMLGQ
The assay is described as follows: Titration of GKRP-P446L with GK-W99R/W167F/W257F (GK–GKRP complex assembly) by TF. It counts as binding. More on the design: ΔF: scale not given here. The conditions noted are these: for Kd: read-out: S0.5 of GK. The procedure:
Spectra were measured with a Fluorolog-3-21 Jobin-Yvon Spex Instrument SA equipped with a 450 W Xenon lamp for excitation and a cooled R2658P Hamamatsu photomultiplier tube for detection. For all measurements, 90° geometry was employed and 295 nm excitation wavelengths were used to observe fluorescence emission in the 300–500 nm range. For TF, spectra slit width was set to provide a bandpath of 3 nm for excitation and 3 nm for emission. Spectra were corrected for instrumental response using Spex instrument software. A thermostatically controlled cell holder maintained sample temperature at 20°C. A thermocoupler was used to measure sample temperature. The buffer used contained 20 mM phosphate, 50 mM KCl, 1 mM EDTA and 1 mM DTT (pH 7.2).
Fluorescence data were obtained via the stepwise addition of the appropriate amount of non-fluorescent GK-W99R/W167F/W257F to GKRP in a fluorescence cuvette. […] The change in GKRP protein fluorescence during titration was also measured using time-dependent scans. A manual procedure was used such that a typical titration with 10–12 additions required 20–25 min to perform. The same buffer as described above was routinely used unless stated otherwise. The bandpath was 0.5 nm at 295 nm for excitation and 12 nm at 340 nm for emission. […] For some graphical presentations the linear form of the Hill equation was used: log[F/(Fsat−F)]=H log x−H log KD [46].

The mark [4] stands for this setting: D-glucose titration in the presence of GKA (20 μM).
Where [5] appears, read: 0.3 μM GKRP-P446L, ligand alone, 20°C.
The mark [6] stands for this setting: GK titration with 20 μM GKA, 20°C.
Where [7] appears, read: GK titration with 500 μM F1P, 20°C.
Where [8] appears, read: GK titration with 500 μM F6P, sigmoidal fit, 20°C.
Setting [9] is: GK titration with 500 μM F6P, simple saturation fit (H = 1).
Setting [10] is: GK titration with 100 mM D-glucose and 20 μM GKA, 20°C.
Where [11] appears, read: GK titration with 100 mM D-glucose and 500 μM F1P, 20°C.
Where [12] appears, read: GK titration with 100 mM D-glucose and 500 μM F6P, 20°C.
[13] abbreviates: GK titration with 100 mM D-glucose, 20°C.
Where [14] appears, read: GK titration, no further agent, sigmoidal fit, 20°C.
[15] abbreviates: GK titration, no further agent, simple saturation fit (H = 1).

`OC[C@H]1OC(O)[C@H](O)[C@@H](O)[C@@H]1O` (stereo partly drawn) [D-Glucose, D-glucose]: the H in assay [1] (setting [4]) and in assay [1] (D-glucose titration) was 1 in each case. Moreover, the Kd in assay [1] (setting [4]) came out at 740 µM; in assay [1] (D-glucose titration), 4600 µM; in assay [2] (0.3 μM GKRP-P446L, D-glucose alone, 20°C, read-out: S0.5), 27000 µM. For the same molecule, the “H (Hill number)” value in assay [2] (setting [5]) came to 1.49. Moreover, in assay [2] (setting [5]), the “ΔF (relative fluorescence change at 340 nm)” value was −0.06. In addition, the “effect on the TF signal of GKRP-P446L” value in assay [2] (ligand alone) is “lowered the TF signal”.

B1: GK-W99R/W167F/W257F: tryptophan residue-free, non-fluorescent recombinant human β-cell GK made for the present study (protein)
chain: MLDDRARMEAAKKEKVEQILAEFQLQEEDLKKVMRRMQKEMDRGLRLETHEEASVKMLPTYVRSTPEGSEVGDFLSLDLGGTNFRVMLVKVGEGEEGQRSVKTKHQMYSIPEDAMTGTAEMLFDYISECISDFLDKHQMKHKKLPLGFTFSFPVRHEDIDKGILLNFTKGFKASGAEGNNVVGLLRDAIKRRGDFEMDVVAMVNDTVATMISCYYEDHQCEVGMIVGTGCNACYMEEMQNVELVEGDEGRMCVNTEFGAFGDSGELDEFLLEYDRLVDESSANPGQQLYEKLIGGKYMGELVRLVLLRLVDENLLFHGEASEQLRTRGAFETRFVSQVESDTGDRKQIYNILSTLGLRPSTTDCDIVRRACESVSTRAAHMCSAGLAGVINRMRESRSEDVMRITVGVDGSVYKLHPSFKERFHASVRRLTPSCEITFIESEEGSGRGAALVSAVACKKACMLGQ
modifications: left off: GST, end not stated, cleaved
notes: tryptophan residue-free, non-fluorescent recombinant human β-cell GK made for the present study
B1: the H in assay [3] (setting [6]) is reported as 2.17; in assay [3] (setting [7]) it was 2.84; in assay [3] (setting [8]), 1.31; in assay [3] (GK titration with 500 μM F6P, simple saturation fit) it was 1; in assay [3] (setting [10]), 2.68; in assay [3] (setting [11]), 2.77. Also, the H is on record as 2.45 in assay [3] (setting [12]); 2.94 in assay [3] (setting [13]); 1.86 in assay [3] (setting [14]); 1 in assay [3] (GK titration, no further agent, simple saturation fit). Also, the ΔF came to 0.43 in assay [3] (setting [6]); 0.41 in assay [3] (setting [7]); 0.44 in assay [3] (setting [8]); 0.55 in assay [3] (setting [9]); 0.42 in assay [3] (setting [10]); 0.44 in assay [3] (setting [11]). The ΔF was 0.42 in assay [3] (setting [12]), 0.43 in assay [3] (setting [13]), 0.44 in assay [3] (setting [14]) and 0.82 in assay [3] (setting [15]). The Kd in assay [3] (setting [6]) was determined as 2.59 µM; in assay [3] (setting [7]) it was 2.95 µM; in assay [3] (setting [8]), 1.66 µM; in assay [3] (setting [9]), 2.45 µM; in assay [3] (setting [10]), 3.55 µM; in assay [3] (setting [11]), 2.97 µM. Besides, the Kd stood at 2.84 µM in assay [3] (setting [12]), 3.38 µM in assay [3] (setting [13]), 2.05 µM in assay [3] (setting [14]) and 5.23 µM in assay [3] (setting [15]). The “maximal ΔTF value of GKRP-P446L” value in assay [3] (range under all conditions tested) is 0.41–0.44. Further, the “increase of the TF of GKRP-P446L” value in assay [3] (saturating GK (5 μM), 0.3 μM GKRP) is recorded as 44%.
